B1: myc-HTR6 [mouse] / EGFP-RABL2B [human] (parent complex)
chain 1: MVPEPGPVNSSTPAWGPGPPPAPGGSGWVAAALCVVIVLTAAANSLLIALICTQPALRNTSNFFLVSLFTSDLMVGLVVMPPAMLNALYGRWVLARGLCLLWTAFDVMCCSASILNLCLISLDRYLLILSPLRYKLRMTAPRALALILGAWSLAALASFLPLLLGWHELGKARTSAPGQCRLLASLPYVLVASGVTFFLPSGAICFTYCRILLAARKQAVQVASLTTGTATAGQALETLQVPRTPRPGMESADSRRLTTKHSRKALKASLTLGILLSMFFVTWLPFFVASIAQAVCDCISPGLFDVLTWLGYCNSTMNPIIYPLFMRDFKRALGRFVPCVHCPPEHRASPASPSMWTSHSGARPGLSLQQVLPLPLPPNSDSDSASGGTSGLQLTAQLLLPGEATRDPPPPTRAPTVVNFFVTDSVEPEIRQHPLGSPMN
chain 2: MAEDKTKPSELDQGKYDADDNVKIICLGDSAVGKSKLMERFLMDGFQPQQLSTYALTLYKHTATVDGRTILVDFWDTAGQERFQSMHASYYHKAHACIMVFDVQRKVTYRNLSTWYTELREFRPEIPCIVVANKIDDINVTQKSFNFAKKFSLPLYFVSAADGTNVVKLFNDAIRLAVSYKQNSQDFMDEIFQELENFSLEQEEEDVPDQEQSSSIETPSEEAASPHS

Variants of: B1
Assay: co-immunoprecipitation (IP anti-EGFP, Western blot anti-Myc), IP/input band quantitation; lysates from HEK293T cells; Input is 2.5% of lysate used for IP; parent: 100

Row | Variant | percent of parent [%]
1 | chain 1 L398A, chain 1 L399A, chain 1 L400A | 103

Variants of: B1
Assay: as above
Remark: another data set of the same source

Row | Variant | percent of parent [%]
2 | chain 1 L398A, chain 1 L399A, chain 1 L400A | 121
3 | chain 1 R216A, chain 1 K217A, chain 1 Q218A, chain 1 L398A, chain 1 L399A, chain 1 L400A | 105
4 | chain 1 R216A, chain 1 K217A, chain 1 Q218A | 84
